Here are results for three molecules from patent US10485196, “Rice plants with altered seed phenotype and quality” (THE INSTITUTE OF GENETICS AND DEVELOPMENTAL BIOLOGY CHINESE …).

Conditions in all cases: label: biotin 3'
Data set [1] addresses T1, OsSPL16 (GW8) (Oryza sativa, UniProt Q6YZE8 Q6YZE8:1-455).
T1 sequence: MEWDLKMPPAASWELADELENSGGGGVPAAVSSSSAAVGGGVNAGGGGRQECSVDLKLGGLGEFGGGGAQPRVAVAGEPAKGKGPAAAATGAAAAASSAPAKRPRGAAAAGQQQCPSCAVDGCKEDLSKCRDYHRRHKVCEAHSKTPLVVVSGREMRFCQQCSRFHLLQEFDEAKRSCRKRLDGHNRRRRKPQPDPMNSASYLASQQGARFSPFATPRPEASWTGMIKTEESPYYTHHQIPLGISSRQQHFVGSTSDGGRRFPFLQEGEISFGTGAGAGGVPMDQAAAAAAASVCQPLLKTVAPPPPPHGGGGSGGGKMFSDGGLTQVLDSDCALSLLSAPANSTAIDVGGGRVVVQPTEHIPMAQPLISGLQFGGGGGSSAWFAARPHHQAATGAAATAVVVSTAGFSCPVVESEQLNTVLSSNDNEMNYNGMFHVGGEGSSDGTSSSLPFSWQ
Nature of the data set: EMSA; competed by 10-50x cold GTAC probe; probe assignment from Table 9. The source says:
FIG. 4. OsSPL16 negatively regulates GW7 expression. (a) Effect of OsSPL16/GW8 on transcript abundance of GW7 in young panicles. Transcription relative to the level of NIL-GW8^HJX74 plants set to be one. Data shown as mean±s.e.m (n=3). (b) Grain size and shape formed by transgenic NIL-gw8 Basmati plants. Scale bar: 2 mm. (c) ChIP assays. The diagram depicts the putative GW7 promoter and regions of it used for ChIP-PCR analysis of extracts from young panicle of transgenic NIL-gw8 Basmati plants carrying pActin::myc-OsSPL16 construct. Data shown as mean±s.e.m (n=3). (d) EMSA assays. The GTAC motifs-containing DNA fragment (F8 shown in c) of the GW7 promoter was incubated with GST-OsSPL16 as indicated. Competition for OsSPL16 binding was performed with 10×, 20×, 30× and 50× cold probes containing the GTAC motifs, respectively. (e) OsSPL16 represses transcription of the GW7 gene promoter. Relative luciferase activity was monitored in rice protoplasts co-transfected with the different effector and reporter constructs. Mock: co-transfected with reporter constructs and an empty effector construct; negative control: co-transfected with effector construct and an empty reporter construct set to be one. Data shown as mean±s.e.m (n=3). A Student's t-test was used to generate the P values. (f) An 11 bp deletion and 18 bp insertion found in close proximity to the GTAC motifs in the GW7TFA allele. […]

Data set [2] has as its target T1, OsSPL16 (GW8). The description is as above. The source holds these as a separate data set.
For data set [3], the target named is T1, OsSPL16 (GW8). The experiment in a line: EMSA; mutation of GTAC abolished affinity; probe assignment from Table 9. As to the method:
FIG. 10 The DNA fragment (F8) containing two […] motifs (a) or two mutated ATAC motifs (b) was incubated with GST-OsSPL16 as indicated. Competition for OsSPL16 binding was performed with 10×, 20×, 30× and 50× cold probes containing the GTAC motif, respectively.
For orientation: Mobility shift assays separate free from complexed probe on a gel.

B1: GW7 promoter F8 fragment probe (HJX1) (dsDNA)
DNA 1: CCATTGACACACCATACCACATCTCATCTCACGCGTCCCAAAGAAAGTGATAGTGTACGTACC
DNA 2: GGTACGTACACTATCACTTTCTTTGGGACGCGTGAGATGAGATGTGGTATGGTGTGTCAATGG
B1: in the data set with OsSPL16 (GW8) [1], the binding result is recorded as “binds”.

B2: GTAC motif probe (T) (dsDNA)
DNA 1: TAGTGTACGTACCTCTTAGTGTACGTACCTCTTAGTGTACGTACCTCT
DNA 2: AGAGGTACGTACACTAAGAGGTACGTACACTAAGAGGTACGTACACTA
Regarding B2, the binding result with OsSPL16 (GW8) [2] is listed as “binds”.

B3: mutated GTAC motif probe (Z) (dsDNA)
DNA 1: TAGTGTGCGTGCCTCTTAGTGTGCGTGCCTCTTAGTGTGCGTGCCTCT
DNA 2: AGAGGCACGCACACTAAGAGGCACGCACACTAAGAGGCACGCACACTA
On to B3, for which the binding result with OsSPL16 (GW8) [3] is listed as “no binding”.
